The source of these data is PMC6761100.

This test has as its target Myc.His.CK1a. As to the kind of experiment: c-Myc immunoprecipitation (CK1a IP). To be noted: strains cultured in LL; n = 4; parent: est. 1.0; read off a plot.

On to “FREQUENCY (FRQ), wild type (from UniProt P19970) V320I”, for which the ratio to parent was 0.52.
Take “FREQUENCY (FRQ), wild type (from UniProt P19970) L488V”: the ratio to parent was 0.23.
Consider “FREQUENCY (FRQ), wild type (from UniProt P19970) Q325N”, for which the ratio to parent was found to be 0.97.
Turning to “FREQUENCY (FRQ), wild type (from UniProt P19970) Q494N”, the ratio to parent is 0.68.
